The source of these data is patent publication US9624482B2, “Thermophilic cellobiohydrolase” (Sandia Corporation, priority 2009, dated 2017).

The target in one data set is GH5 (Caldicellulosiruptor saccharolyticus, UniProt A4XIF7). Put plainly: Product inhibition by cellobiose of pNPC hydrolysis. The conditions noted are these: 5 mM pNPC, optimal condition; read-out: IC50 of cellobiose on CBH activity. In kind it is biochemical. As to the method: (§1) To examine the catalytic activity of GH5 in detail, the hydrolysis of nitrophenol from 4-nitrophenyl-β-D-cellobioside (pNPC) and 4-nitrophenyl-β-D-glucopyranoside (pNPG) are measured. Under the optimum reaction condition that is previously found (80° C. and pH 5.5), pNPC was hydrolyzed by both CBM3-GH5 and GH5. […] The product inhibition by cellobiose is examined by adding unlabeled cellobiose into reaction mixtures containing 5 mM of pNPC. The IC50 inhibition constant for cellobiose on the catalytic activity of GH5 is found at c.a. 30 mM. The kinetics of pNPC hydrolysis by CBM3-GH5 and GH5 are compared to see whether the CBM3 domain can influence the catalytic activity of the GH5 domain on a soluble substrate.
GH5, sequence (A4XIF7 entry or part of it): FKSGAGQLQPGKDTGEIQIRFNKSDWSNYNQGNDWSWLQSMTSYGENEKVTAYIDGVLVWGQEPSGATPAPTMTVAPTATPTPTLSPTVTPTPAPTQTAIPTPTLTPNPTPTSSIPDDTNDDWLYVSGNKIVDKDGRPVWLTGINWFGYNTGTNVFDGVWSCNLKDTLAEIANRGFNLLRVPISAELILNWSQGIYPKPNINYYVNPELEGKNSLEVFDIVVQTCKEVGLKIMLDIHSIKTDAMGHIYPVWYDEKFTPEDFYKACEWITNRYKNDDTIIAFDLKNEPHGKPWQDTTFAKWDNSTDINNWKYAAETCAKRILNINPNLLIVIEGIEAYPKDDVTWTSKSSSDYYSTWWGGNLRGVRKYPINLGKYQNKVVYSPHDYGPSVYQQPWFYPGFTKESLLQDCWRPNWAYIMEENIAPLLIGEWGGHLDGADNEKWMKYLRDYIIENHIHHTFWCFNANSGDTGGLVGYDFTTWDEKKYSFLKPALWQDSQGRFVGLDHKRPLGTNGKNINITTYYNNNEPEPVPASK
(§2) GH5 and CBM3-GH5 (constructs C and E, respectively) are tested to determine the influence of product and ionic strength on CBH activity.

Data set [1] in a line: CBH (cellobiohydrolase or exoglucanase) activity of constructs. In kind it is biochemical. The text has this:
(§3) CBH is a modular cellulolytic gene from a hyperthermophilic and anaerobic bacterium Caldicellulosiruptor saccharolyticus (C. Sac), which contains the glycoside hydrolase family 10 (GH10), carbohydrate binding module family 3 (CBM3), and glycoside hydrolase family 5 (GH5) domains in a single open reading frame (ORF). We have expressed, purified, and characterized the function of the recombinant GH5 with and without CBM3 domain. The nucleotide sequence of the ORF is codon-optimized and then synthesized for protein expression in E. coli. The translated products contain c-terminal V5 epitope and His (×6) tags from the pDEST42 vector sequence. The recombinant proteins CBM3-GH5 and GH5 are expressed in BL21(DE3)Star E. coli and purified by affinity (HisTrap FF) and ion-exchange (HiTrap Q) chromatography methods. The average yields are 4 mg and 3 mg per liter, respectively.

A short description of data set [2]: Effect of IL concentration on CBH activity, CMC substrate, DNS. The conditions noted are these: EMIM acetate. In kind it is biochemical. Here is the method:
GH5 and CBM3-GH5 (constructs C and E, respectively) are tested to determine the effect of IL concentration on the CBH activity of GH5. Carboxymethyl cellulose (CMC) is used as the substrate for the enzymatic reaction, and the amount of released products containing reducing ends is measured by DNS. The CBH activity remains fairly highly from 0% to more than 20% EMIM acetate. From 25% EMIM acetate the CBH activity starts to decrease and the CBH activity diminished at about 60% EMIM acetate.

Substrate in data set [3]: O=[N+]([O-])c1ccc(O[C@@H]2O[C@H](CO)[C@@H](O[C@@H]3O[C@H](CO)[C@@H](O)[C@H](O)[C@H]3O)[C@H](O)[C@H]2O)cc1
In words: hydrolysis kinetics of 4-nitrophenyl-β-D-cellobioside (pNPC) by GH5 (Eadie-Hofstee plots). The data set is classed as biochemical, Caldicellulosiruptor saccharolyticus.
From the text: as §3, §1

A short description of data set [4]: Hydrolysis of pNPC, kinetics by Eadie-Hofstee plots. In kind it is biochemical. The following applies: 80° C. and pH 5.5. Here is the method:
as §1

Data set [5] in a line: Hydrolysis of pNPG (β-glucosidase activity). In kind it is biochemical. The following applies: 80° C. and pH 5.5, up to one hour. Here is the method:
as §1

Data set [6] in a line: Enzyme digestion of solid substrates, products by HPAEC. In kind it is biochemical. The following applies: 30 mg substrate, 10 μg protein, 80° C., pH 5.5, 17 hours. Here is the method: The effect of CBM3 on the cellobiohydrolase activity on solid substrates by GH5 is tested on Avicel and corn stover. These solid substrates are pretreated with the ionic liquid 1-ethyl-3-methylmidazolium acetate ([C2mim][OAc]). […] Enzyme digestion is performed by mixing 30 mg of substrate and 10 μg of protein in 0.5 mL volume and incubating at 80° C. and pH 5.5 for 17 hours. GH5 and CBM3-GH5 are able to produce more cellobiose and glucose from pre-treated Avicel than untreated Avicel.

The nature of data set [7]: CMCase activity of constructs. The data set is classed as biochemical.
From the text: as §3

The nature of data set [8]: Enzymatic activity on CMC under different pH and temperature, DNS assay. The data set is classed as biochemical. As to the method: To determine the optimum conditions for the enzymatic activity of GH5 on CMC under different pH and temperature ranges was measured by DNS assay. The maximum activity is observed at 80° C. and at pH between 4.7 and 5.5; the optimum conditions of the GH5 activity on CMC is at a higher temperature and at a lower pH than the optimum growth conditions of C. sac (70° C., at neutral pH). In addition, Csac GH5 is also active on 4-nitrophenyl β-D-cellobioside, but not active on 4-nitrophenyl β-D-glucopyranoside (up to 1 hr incubation). Therefore, GH5 is a cellobiohydrolase/exoglucanase that produces cellobiose.

Data set [9] in a line: Influence of ionic strength (NaCl) on CBH activity. In kind it is biochemical. The following applies: 2.3 M NaCl. As to the method:
as §2

Substrate in data set [10]: O=[N+]([O-])c1ccc(O[C@@H]2O[C@H](CO)[C@@H](O[C@@H]3O[C@H](CO)[C@@H](O)[C@H](O)[C@H]3O)[C@H](O)[C@H]2O)cc1
In words: hydrolysis kinetics of 4-nitrophenyl-β-D-cellobioside (pNPC) by CBM3-GH5 (Eadie-Hofstee plots). In kind it is biochemical, Caldicellulosiruptor saccharolyticus. The conditions noted are these: other: pNPC, 80° C., pH 5.5, Eadie-Hofstee plot.
From the text: as §3, §1

The mark [11] stands for this setting: other: 80° C., 50 mM MES, pH 5.5 (general description of the enzyme).
Setting [12] is: other: pNPC, 80° C., pH 5.5, Eadie-Hofstee plot.

Entries after “also recorded” stand apart in the source; their conditions may differ.

For `O=C[C@H](O)[C@@H](O)[C@H](O[C@@H]1O[C@H](CO)[C@@H](O)[C@H](O)[C@H]1O)[C@H](O)CO` [cellobiose], the half-maximal inhibitory concentration (IC50) at GH5 was approximately 30 mM.

B1: Caldicellulosiruptor saccharolyticus (Csac) GH5 cellobiohydrolase domain, construct C (CsacF7-4), amino acids 507-1039 of Csac CBH, SEQ ID NO:3 … (protein)
chain: MFKSGAGQLQPGKDTGEIQIRFNKSDWSNYNQGNDWSWLQSMTSYGENEKVTAYIDGVLVWGQEPSGATPAPTMTVAPTATPTPTLSPTVTPTPAPTQTAIPTPTLTPNPTPTSSIPDDTNDDWLYVSGNKIVDKDGRPVWLTGINWFGYNTGTNVFDGVWSCNLKDTLAEIANRGFNLLRVPISAELILNWSQGIYPKPNINYYVNPELEGKNSLEVFDIVVQTCKEVGLKIMLDIHSIKTDAMGHIYPVWYDEKFTPEDFYKACEWITNRYKNDDTIIAFDLKNEPHGKPWQDTTFAKWDNSTDINNWKYAAETCAKRILNINPNLLIVIEGLEAYPKDDVTWTSKSSSDYYSTWWGGNLRGVRKYPINLGKYQNKVVYSPHDYGPSVYQQPWFYPGFTKESLLQDCWRPNWAYLMEENIAPLLIGEWGGHLDGADNEKWMKYLRDYIIENHIHHTFWCFNANSGDTGGLVGYDFTTWDEKKYSFLKPALWQDSQGRFVGLDHKRPLGTNGKNINITTYYNNNEPEPVPASK
notes: C-terminal V5 and His6 tags (pDEST42); E. coli BL21(DE3) Star; purified
In the case of B1, the “CBH activity (cellobiohydrolase or exoglucanase)” value in data set [1] is “Yes”. In data set [2], the “IL concentration at which CBH activity diminished” value was “about 60%”, the “IL concentration from which CBH activity starts to decrease” value is reported as 25% and the “IL concentration up to which the enzyme is active/tolerant” value is “up to 50%”. In addition, in [3] (setting [11]), the Km came out at 2200 µM and the maximum rate (Vmax) came to 0.71 µmol/min/mg. Also, in data set [3] (setting [12]), the Km came to 2400 µM, the maximum rate (Vmax) came out at 0.62 µmol/min/mg and the catalytic constant (kcat) amounted to 0.817 s⁻¹. Also, in data set [4], the “Activity on pNPC” value was “active; also recorded: hydrolyzed”. For the same molecule, in data set [5], the “Activity on pNPG” value is given as “not active; also recorded: not hydrolyzed”. In data set [6], the “Sugar released from solid substrates” value was “can produce both cellobiose and glucose; also recorded: cellobiose is the predominant sugar released”. Also, the CMCase activity entry in data set [7] is recorded as “Yes”. Also, in [8], the “Temperature of maximum (optimal) activity” value worked out at 80 °C and the “pH of maximum (optimal) activity” value is 4.7-5.5.

B2: Caldicellulosiruptor saccharolyticus (Csac) CBM3-GH5 cellobiohydrolase, construct E (CsacF7-6), amino acids 374-1039 of Csac CBH, SEQ ID NO:4 … (protein)
chain: MGVTTSSPTPTPTPTVTVTPTPTPTPTPTVTATPTPTPTPVSTPATGGQIKVLYANKETNSTTNTIRPWLKVVNSGSSSIDLSRVTIRYWYTVDGERAQSAVSDWAQIGASNVTFKFVKLSSSVSGADYYLEIGFKSGAGQLQPGKDTGEIQIRFNKSDWSNYNQGNDWSWLQSMTSYGENEKVTAYIDGVLVWGQEPSGATPAPTMTVAPTATPTPTLSPTVTPTPAPTQTAIPTPTLTPNPTPTSSIPDDTNDDWLYVSGNKIVDKDGRPVWLTGINWFGYNTGTNVFDGVWSCNLKDTLAEIANRGFNLLRVPISAELILNWSQGIYPKPNINYYVNPELEGKNSLEVFDIVVQTCKEVGLKIMLDIHSIKTDAMGHIYPVWYDEKFTPEDFYKACEWITNRYKNDDTIIAFDLKNEPHGKPWQDTTFAKWDNSTDINNWKYAAETCAKRILNINPNLLIVIEGLEAYPKDDVTWTSKSSSDYVSTWWGGNLRGVRKYPINLGKYQNKVVYSPHDYGPSVYQQPWFYPGFTKELLQDCWRPNWAYLMEENIAPLLIGEWGGHLDGADNEKWMKYLRDYIIENHIHHTFWCFNANSGDTGGLVGYDFTTWDEKKYSFLKPALWQDSQGRFVGLDHKRPLGTNGKNINITTYYNNNEPEPVPASK
notes: as for B1
In the case of B2, the “Residual CBH activity” value in [9] is given as “at least 80%”. For the same molecule, the “CBH activity (cellobiohydrolase or exoglucanase)” value in data set [1] was “Yes”. Also, in data set [2], the “IL concentration at which CBH activity diminished” value is recorded as “about 60%” and the “IL concentration from which CBH activity starts to decrease” value is recorded as 25%. In addition, in [10], the Km stood at 2200 µM, the maximal velocity (Vmax) came to 0.71 µmol/min/mg and the turnover number (kcat) was 0.767 s⁻¹. Also, in data set [4], the “Activity on pNPC” value is listed as “hydrolyzed”. For the same molecule, the “Activity on pNPG” value in [5] is given as “not hydrolyzed”. Further, the “Sugar released from solid substrates” value in [6] is recorded as “cellobiose is the predominant sugar released; also recorded: produced more cellobiose than GH5”. Also, the CMCase activity entry in data set [7] was “Yes”.

B3: CBH protein: Protein encoded by the YP_001179883 gene of Caldicellulosiruptor saccharolyticus, domains GH10, CBM3, GH5 (SEQ ID NO:2) (protein, listed as Caldicellulosiruptor saccharolyticus)
chain: MKRNLFRIVSRVVLIAFIASISLVGAMSYFPVETQAAPDWSIPSLCESYKDDFMIGVAIPARCLSNDTDKRMVLKHFNSITAENEMKPESLLAGQTSTGLSYRFSTADAFVDFASTNKIGIRGHTLVWHNQTPDWFFKDSNGQRLSKDALLARLKQYIYDVVGRYKGKVYAWDVVNEAIDENQPDSYRRSTWYEICGPEYIEKAFIWAHEADPNAKLFYNDYNTEISKKRDFIYNMVKNLKSKGIPIHGIGMQCHINVNWPSVSEIENSIKLFSSIPGIEIHITELDMSLYNYGSSENYSTPPQDLLQKQSQKYKEIFTMLKKYKNVVKSVTFWGLKDDYSWLRSFYGKNDWPLLFFEDYSAKPAYWAVLEASGVTTSSPTPTPTPTVTVTPTPTPTPTPTVTATPTPTPTPVSTPATGGQIKVLYANKETNSTTNTIRPWLKVVNSGSSSIDLSRVTIRYWYTVDGERAQSAVSDWAQIGASNVTFKFVKLSSSVSGADYYLEIGFKSGAGQLQPGKDTGEIQIRFNKSDWSNYNQGNDWSWLQSMTSYGENEKVTAYIDGVLVWGQEPSGATPAPTMTVAPTATPTPTLSPTVTPTPAPTQTAIPTPTLTPNPTPTSSIPDDTNDDWLYVSGNKIVDKDGRPVWLTGINWFGYNTGTNVFDGVWSCNLKDTLAEIANRGFNLLRVPISAELILNWSQGIYPKPNINYYVNPELEGKNSLEVFDIVVQTCKEVGLKIMLDIHSIKTDAMGHIYPVWYDEKFTPEDFYKACEWITNRYKNDDTIIAFDLKNEPHGKPWQDTTFAKWDNSTDINNWKYAAETCAKRILNINFNLLIVIEGIEAYPKDDVTWTSKSSSDYYSTWWGGNLRGVRKYPINLGKYQNKVVYSPHDYGPSVYQQPWFYPGFTKESLLQDCWRPNWAYIMEENIAPLLIGEWGGHLDGADNEKWMKYLRDYIIENHIHHTFWCFNANSGDTGGLVGYDFTTWDEKKYSFLKPALWQDSQGRFVGLDHKRPLGTNGKNINITTYYNNNEPEPVPASK
B3: the “IL concentration up to which the enzyme is active/tolerant” value in [2] is “up to 50%”. Moreover, the “Temperature of maximum (optimal) activity” value in data set [8] was “about 80 °C”.

As usually defined, the IC50 is the concentration at which inhibition is half-maximal. The Km is the concentration of substrate that gives half-maximal velocity. Usually Vmax stands for the rate approached at saturating substrate. As a reminder, the kcat is the maximal rate divided by the concentration of active sites.
